Source: the DeepSol protein solubility set

Experiment: soluble on expression in E. coli; label from the status in PepcDB or PDB records

| Sequence | soluble on expression in E. coli |
| --- | --- |
| MRIGLFTDTYFPQVSGVATSIRTLKEELEKEGHEVYIFTTTDRDVKRFEDPTIIRLPSVPFVSFTDRRVVYRGLISSYKIAKHYNLDIIHTQTEFSLGLLGKMIGKALRIPVVHTYHTQYEDYVSYIANGKIIRPSMVKPLLRGYLKDLDGVICPSRIVLNLLEGYEVTIPKRVIPTGIPLEKYIRDDITAEEVTNLKAELGIAGDETMLLSLSRISYEKNIQAIINQMPAILAENAKIKLIIVGNGPYLQDLKHLAMQLEVDKHVTFTGMVPHDKVALYYKACDFFISASTSETQGLTYIESLASGTPIIAHGNPYLDDVVTDKMFGTLYYAETDLTDAIIDAILKTPVMDKRLLAKKRYEISAQHFGKSIYTFYLDTLIARNSKEAQKLSLYLNHSGKSSSLKLVQGAIHLPKRAAKVTAITSVKVVKAPIKLVHAIKDFLD | not soluble |
| MRIHSPYPASWALAQRIGYLYSEGEIIYLADTPFERLLDIQRQVGQCQTMTSLSQADFEARLEAVFHQNTGESQQIAQDIDQSVDLLSLSEEMPANEDLLNEDSAAPVIRLINAILSEAIKETASDIHIETYEKTMSIRFRIDGVLRTILQPNKKLAALLISRIKVMARLDIAEKRIPQDGRISLRIGRRNIDVRVSTLPSIYGERAVLRLLDKNSLQLSLNNLGMTAADKQDLENLIQLPHGIILVTGPTGSGKSTTLYAILSALNTPGRNILTVEDPVEYELEGIGQTQVNTRVDMSFARGLRAILRQDPDVVMVGEIRDTETAQIAVQASLTGHLVLSTLHTNSASGAVTRLRDMGVESFLLSSSLAGIIAQRLVRRLCPQCRQFTPVSPQQAQMFKYHQLAVTTIGTPVGCPHCHQSGYQGRMAIHEMMVVTPELRAAIHENVDEQALERLVRQQHKALIKNGLQKVISGDTSWDEVMRVASATLESEA | not soluble |
| MRINKPFSDDSNTVVFVSSKTYGVKEEAAHNPNVEFGVVLPTDFPAFNRALVQFLKRKKTKLNINLDSLIELYKKNENSGCFHTAIKTVITSVTFCETTPFTMKTKPEKNVEVAVQCAVEYHNLVKEYET | not soluble |
| MRKCRCLKLRNVKLINIRRIAVMMRSSKMASERSTDVQAFIGELDGGVFETKIGAVLSEVASGVMNTKTKGKVSLNLEIEPFDENRLKIKHKLSYVRPTNRGKISEEDTTETPMYVNRGGRLTILQEDQGQLLTLAGEPDGKLRAAGHMAGDPLEHHHHHH | soluble |
| MRKDRVTQGVDRIMQAIADKEFELGQAIPGEAKLAEFLDVSRPTMREVVRTLADRGVLEVVHGRGTFVAPLDHWSDVRSRVDFISRTLSPGEVGFHLTEVRRMIEVGSCGHAAARAEDCDLDRMQTALDAYDAALEAHDVAGIAKSDVEFHNAIFEATKNPVVTALMIPLEGELAASRLRTSAVSEVAERAQEHHRRIYSAIKASDEEGAKNAMRAHMSQTFDDLQRFVGEY | not soluble |
| MRKFIFILLLIISSFSFCSNEISVDKSVEESVTKDYDQDGKYSSYERALRNAQGSIYVTLPEKRGYWYTILDRIKAEEDELMPDEKARIRRK | not soluble |
| MRKGNTDLLLFFNGWGMDRRVADWLVSAWPDSAGRDIAVLYDYRNLSIPAWLGEVMAEARAVDLVAWSLGVWAAVNSELEKIDRAVAINGTATPLDAERGIPPEIFAGTLKSWNDANRKRFERRMTGGVPPKIVDATRSDRTSADQQAELLSLGEAVARFPAESTASWKFSKALIGGRDLIFSAENQRRAWSEAGVRVAEIAAMPHFPFTHIAGWGELFT | not soluble |
| MRKISEMPKFERPREKLLERGVGYLSDLELLAVLIGNGTKDCSVMNVAGKVLKLLDKGCDRVSARVLQEIEGVGPAKSAVIAAALEFARRRIRPEGIKITSACDILPLISYLANRKQEHFVCVSLNGASEVIATRVVSVGLVNNVQVHPREVFADPITDRATAVIVAHNHPSGSVAPSQEDIEVTKRLKDAGNTLGIKLIDHIIFSRKGYFSFLENGQMPD | soluble |
| MRKLKYQRDFFPLLHLNYGSNWRCGMDRIAYFKSLLEKNPDNPMVHYSLGLEYFKVKDYENAIKHLERYLELQEDEGAAYRTLAKCYEELGEFQKAIEVLEEGIRQAMKYNHPSMAQEYQQWIEELKGMAF | soluble |
| MRKPRITYLDVWANDERIGTLEKGAMYRFAYDNPNSSLLGLHYQDRSKVYISNNMPHIFAQYFPEGFLDAHITSKYAFHDAPFEDNEMLRLAILCRETLGRIHVRCNDPLFNEWIDGLEMKNPRILTERDLLGINARQVFQQYMAEIFHHGRFVSVSGIQQKMSLDAIRRNTKQTASYIAKGFDASEYPCLAANEFLCMQTIKQAGIAVAQTSLSEDSSVLLVRRFDVSEQGYFLGMEDFTSLRQYSVEDKYKGSYAAIAQIIRQISGRPDEDLIHFFNQLAASCILKNGDAHLKNFSVLYHDEYDVRLAPVYDVLDTSIYRVGTQGIFDAYDDTLALNLTNHGKKTYPSKNTLLDFAEKYCDLGREDASFMIDTIVQAKEQVLVKYSDVLRENEWLAQKWHFIPDENEEGLPFTFR | not soluble |
| MRKQWLGICIAAGMLAACTSDDGQQQTVSVPQPAVCNGPIVEISGADPRFEPLNATANQDYQRDGKSYKIVQDPSRFIQAGLAAIYDAEPGSNLTASGEAFDPTQLTAAHPTLPIPSYARITNLANGRMIVVRINDRGPYGNDRVISLSRAAADRLNTSNNTKVRIDPIIVAQDGSLSGPGMACTTVAKQTYALPAPPDLSGGAGTSSVSGPQGDILPVSNSTLKSEDPTGAPVTSSGFLGAPTTLAPGVLEGSEPTPAPQPVVTAPSTTPATSPAMVTPQAASQSASGNFMVQVGAVSDQARAQQYQQQLGQKFGVPGRVTQNGAVWRIQLGPFANKAEASTLQQRLQTEAQLQSFITTAQ | not soluble |
| MRKVTVSLIKADVGSVAGHTTVPDELKKAAEENLKNAVDSGLIIDFRVFNAGDDLELLMTHDKGVDSEEIHRLAWETFEKAAGIAKELKLYGAGQDLLKDAFSGNVRGLGPGVAEMEFTERKAEPVIAFMMDKTEPGAFNMPIFRMFADPFNTAGLVIDPTMHQGFVFEIWDIKESKRVFMRTPEEMYDILALIGGKSRFVIKRVYPKEGGKLPADEPVAVISTEKLYEVAGEYVGKDDPVALVRAQSGLPAVGEVLEPFAFPHLVSGWMRGSHNGPIMPVPFKYSKCTRFDGPPRCIAAGFQLANGKIIGPVDMFDDPAFDYTRQKAMEIAEYMRRHGPFEPHRLPSEDMEYTTLPKVLEKLKGRFEEV | not soluble |
| MRLALFDLDNTLLGGDSDHAWGDYLYQRGILDAATYKSRNDEFYQDYLAGTLNMTDYLNFTLEILGNTDMAQLQEWHREFMRDCIEPIMLPKALELIAKHREAGDKLVVITATNRFVTAPIVARLGIETLLATECEMVDGRYTGRTTGVPCFREGKVTRLNQWLEDNAFSLEDSYFYSDSMNDLPLLEQVANPVAVDPDARLRAEAEQRGWPVITLRS | not soluble |
| MRLERTFDPNDLSTQNMESPICLPIGFVHFLAQSQTLQQVLDTVAEWINRIFESDRTSITLYENSDYLKVYSFSGNKAIPADFLVPIDQAFVGRVFKNQQLIICDDVSQSDELDCVMLTSSGMGTCMDAPLMHGQMCLGTLNVAHHQTHFYTKEQAAQLQCIANWIALNI | not soluble |
| MRLFFSLLILLSFFARATEPVQVFTDDLGRKVTVPAHPKRIVSLHDLDITIPLIELGVPPVASHGRTRPDGSHFIRSGALLTGVDFDNSSIAFIGTADIDIEAIVAAKPDLIITEPTRNTPIERLEKIAPTVSIDHLKGGAPEIYRKLAELTGTQSQLAILERRYQAQINALKATLDSQKITVSVIQANQGKINVMHSYHSLGRVLRDAGFRFPPLIESIPEGGRMDVSAERLPELDADFVFATWRGDTGGKPQDELAAMEKVMPGWCQFLTACRSGRYVLISREEAISNSFASLGLMAAQIQSQIAGRPLPEAK | soluble |
| MRLKKLPIRRKMPMELAYIEKLFREEVGLDIKEHKDKAEQISETVVEIYEELLRKGIENANYNGRDYVSYYDLPITEDLERYMNRFIQDRGEEVLKAFVDYLAKLEEELLKAEEALPPLDEELHQKKADILGGIMLMFASVAKQINGDRKLYAESIPVTREVLRTMI | not soluble |
| MRLLIITGISGAGKSLVVKYLEDIGFFCVDNLPPLLIGKFAEICLKSRGKISKVALVIDIRGGELFNDLVPELNALKESGIDYEILFLEASDQVLIKRYKESRRIHPLAPEGRLIKGIKTEREILSQIRKNATYIIDTSNLTPRQLKEEILAIFVEGRKFDGMIVNIISFGFKYGIPIECDLVFDVRFIPNPYYIESMKYKTGKDEEVRNYVMSFAETAEFMTKLKDLVDFLIPNYIKEGKSQLVIGVGCTGGRHRSVAISEALFSYLCGREHRVFIDHRDIDKDGRSNRR | soluble |
